From the supplement of paper PMC9112550, “Optimization of the antimicrobial peptide Bac7 by deep mutational scanning” (BMC Biology, 2022)

Tested on: Escherichia coli TOP10
Assay: shrunken log2 fold change of peptide-encoding DNA abundance (4.5 h post-induction vs induction); higher = less antimicrobial activity (less host growth inhibition)
Settings: time post-induction: 4.5 h; library: site-saturation at positions 5, 18, 19, 20
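Also: peptides expressed intracellularly from a pBAD plasmid library in pooled LB shake-flask culture, induced with 0.3% L-arabinose, DNA abundance read by NGS, three biological replicates, DESeq2 with apeglm shrinkage.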

Sequence | shrunken log2 fold change
RRIRQRPPRLPRPRPRPIAAPRP | 0.269
RRIRIRPPRLPRPRPRPFKWPRP | -0.128
RRIRWRPPRLPRPRPRPSPGPRP | -0.0366
RRIRGRPPRLPRPRPRPWMSPRP | 0.0647
RRIRGRPPRLPRPRPRPQFDPRP | 0.61
RRIRLRPPRLPRPRPRPNTRPRP | -0.273
RRIRYRPPRLPRPRPRPQHVPRP | -1.14
RRIRSRPPRLPRPRPRPNHTPRP | -0.444
RRIRYRPPRLPRPRPRPENHPRP | -0.552
RRIRVRPPRLPRPRPRPLHMPRP | -0.17
RRIRHRPPRLPRPRPRPVIEPRP | -0.0264
RRIRNRPPRLPRPRPRPNWIPRP | -0.0612
RRIRPRPPRLPRPRPRPYYNPRP | -1.11
RRIRFRPPRLPRPRPRPTLIPRP | -0.19
RRIRKRPPRLPRPRPRPPCMPRP | -0.0208
RRIRYRPPRLPRPRPRPIIPPRP | -0.825
RRIRARPPRLPRPRPRPRFGPRP | 0.469
RRIRERPPRLPRPRPRPLGIPRP | -0.0554
RRIRIRPPRLPRPRPRPIKQPRP | 0.00391
RRIRIRPPRLPRPRPRPASKPRP | -0.116
RRIRIRPPRLPRPRPRPPISPRP | -0.391
RRIRFRPPRLPRPRPRPRDLPRP | -0.00831
RRIRERPPRLPRPRPRPMWHPRP | 0.0749

Sequence | shrunken log2 fold change
RRIRQRPPRLPRPRPRPNIYPRP | -0.153
RRIRTRPPRLPRPRPRPINAPRP | -0.175
RRIRKRPPRLPRPRPRPHANPRP | 0.18
RRIRNRPPRLPRPRPRPELGPRP | 0.193
RRIRGRPPRLPRPRPRPPSSPRP | 0.703
RRIRRRPPRLPRPRPRPRWQPRP | 0.636
RRIRRRPPRLPRPRPRPCSDPRP | 0.00368
RRIRYRPPRLPRPRPRPHCTPRP | -0.372
RRIRFRPPRLPRPRPRPMTFPRP | -0.0585
RRIRTRPPRLPRPRPRPWVSPRP | 0.137
RRIRLRPPRLPRPRPRPWWCPRP | -0.0878
RRIRMRPPRLPRPRPRPFWTPRP | 0.0652
RRIRRRPPRLPRPRPRPADLPRP | -0.141
RRIRVRPPRLPRPRPRPYQQPRP | -0.323
RRIRRRPPRLPRPRPRPMSMPRP | -0.17
RRIRLRPPRLPRPRPRPMAEPRP | 0.141
RRIRLRPPRLPRPRPRPGLLPRP | 0.0272
RRIRGRPPRLPRPRPRPALHPRP | 0.866
RRIRYRPPRLPRPRPRPLHAPRP | 0.000596
RRIRNRPPRLPRPRPRPVPEPRP | 0.61
RRIRERPPRLPRPRPRPDGGPRP | 0.0135
RRIRDRPPRLPRPRPRPLWVPRP | -0.0158
RRIRDRPPRLPRPRPRPWIYPRP | -0.304

Sequence | shrunken log2 fold change
RRIRSRPPRLPRPRPRPPNTPRP | 0.158
RRIRTRPPRLPRPRPRPTAMPRP | 0.301
RRIRERPPRLPRPRPRPCWVPRP | -0.26
RRIRDRPPRLPRPRPRPVYQPRP | -0.263
RRIRDRPPRLPRPRPRPMYYPRP | -0.535
RRIRGRPPRLPRPRPRPNPPPRP | 0.336
RRIRDRPPRLPRPRPRPTRCPRP | 1.35
RRIRCRPPRLPRPRPRPKIQPRP | -0.156
RRIRKRPPRLPRPRPRPWFLPRP | -0.157
RRIRMRPPRLPRPRPRPWIQPRP | -0.228
RRIRVRPPRLPRPRPRPWYAPRP | -0.299
RRIRKRPPRLPRPRPRPLLQPRP | 0.31
RRIRARPPRLPRPRPRPGEVPRP | 0.935
RRIRRRPPRLPRPRPRPDTWPRP | -0.131
RRIRPRPPRLPRPRPRPPYHPRP | -0.226
RRIRHRPPRLPRPRPRPSWSPRP | -0.235
RRIRTRPPRLPRPRPRPPTRPRP | 0.663
RRIRDRPPRLPRPRPRPIRPPRP | -0.0136
RRIRMRPPRLPRPRPRPILHPRP | -0.378
RRIRNRPPRLPRPRPRPNEGPRP | 0.000589
RRIRVRPPRLPRPRPRPGNCPRP | 0.0986
RRIRERPPRLPRPRPRPHAIPRP | -0.234
RRIRLRPPRLPRPRPRPAVYPRP | 0.00171

Sequence | shrunken log2 fold change
RRIRTRPPRLPRPRPRPEVQPRP | 0.0183
RRIRMRPPRLPRPRPRPRGVPRP | 1.23
RRIRIRPPRLPRPRPRPSPQPRP | -0.512
RRIRHRPPRLPRPRPRPIYEPRP | -0.234
RRIRLRPPRLPRPRPRPYQVPRP | -0.0302
RRIRYRPPRLPRPRPRPLSGPRP | -0.0308
RRIRKRPPRLPRPRPRPWVNPRP | 0.0319
RRIRMRPPRLPRPRPRPKHEPRP | 0.767
RRIRARPPRLPRPRPRPGKWPRP | 0.19
RRIRPRPPRLPRPRPRPPSRPRP | 0.353
RRIRPRPPRLPRPRPRPLRFPRP | 0.431
RRIRMRPPRLPRPRPRPFMKPRP | -0.0288
RRIRFRPPRLPRPRPRPHHAPRP | -0.291
RRIRERPPRLPRPRPRPIPQPRP | 0.13
RRIRERPPRLPRPRPRPVSNPRP | -1.12
RRIRKRPPRLPRPRPRPFQCPRP | -0.01
RRIRKRPPRLPRPRPRPTGSPRP | 0.423
RRIRCRPPRLPRPRPRPYPMPRP | -0.424
RRIRARPPRLPRPRPRPSSHPRP | -0.471
RRIRKRPPRLPRPRPRPYWRPRP | -0.426
RRIRARPPRLPRPRPRPVFYPRP | -0.0366
RRIRARPPRLPRPRPRPKWGPRP | 0.418
